Results: patent US20220144916A1

Columns and labels:
[1] = molecular target: KJ1-26 clonotypic antibody
[2] = molecular target: OVA/I-Ad on murine A20 antigen presenting cells pulsed with OVA323-339 peptide (hen; mouse) (UniProt P01012)

“DO11.10 scTCR-Fc fusion protein (Vβ-linker-Vα format)” showed an EC50 (read off the curve) [1] of 0.03 nM and a Half-life [2] of 5.5 min.
